# Test system: U251 human glioblastoma cell line
# Test: in vitro FM-HCR assay of MGMT activity (mPlum O^6MeG reporter plasmid)
# Assay type: cell-based
# Settings: for Reporter expression (%) mean, O^6BG: 100 μM O^6BG; for Reporter expression (%) mean, O^6BG / Reporter expression (%) mean, DMSO: U251 cells, flow cytometry 24 h after transfection, damaged/undamaged reporter, inversely related to MGMT activity; for Reporter expression (%) mean, DMSO: 0.1% DMSO; for MGMT activity (a.u.) DMSO / MGMT activity (% of WT) DMSO: DMSO condition; for MGMT activity (a.u.) DMSO / MGMT activity (a.u.) O^6BG: determined from percent reporter expression; for MGMT activity (% of WT) DMSO / MGMT activity (% of WT) O^6BG: relative to wild-type MGMT in same condition; for Relative MGMT activity (%): MGMT activity (a.u.) in O^6BG divided by DMSO x 100, higher values indicate resistance; for MGMT activity (a.u.) O^6BG / MGMT activity (% of WT) O^6BG: O^6BG condition; for Ratio percent reporter expression (O^6BG/DMSO): lower values indicate resistance to O^6BG; for O^6BG resistance relative to WT (%): percentage difference in relative MGMT activity between variant and wild-type MGMT
# Summary of the method: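 U251 cells transfected with MGMT variant plasmid, mPlum O^6MeG reporter (or undamaged mPlum plasmid) and BFP control, in 100 μM O^6BG or 0.1% DMSO; flow cytometry at 24 h. mPlum count×intensity normalized to BFP; percent reporter expression = damaged/undamaged ×100, inversely related to MGMT activity.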
molecule,measurement,value
G156A: MGMT polypeptide with mutation G156A (protein) MDKDCEMKRTTLDSPLGKLELSGCEQGLHEIKLLGKGTSAADAVEVPAPAAVLGGPEPLMQCTAWLNAYFHQPEAIEEFPVPALHHPVFQQESFTRQVLWKLLKVVKFGEVISYQQLAALAGNPKAARAVGGAMRGNPVPILIPCHRVVCSSGAVANYSGGLAVKEWLLAHEGHRLGKPGLGGSSGLAGAWLKGAGATSGSPPAGRN,"Reporter expression (%) mean, O^6BG",79.0%
same,"Reporter expression (%) mean, DMSO",32.3%
same,MGMT activity (a.u.) DMSO,3.10 a.u.
same,MGMT activity (% of WT) DMSO,57.4 % of WT
same,Relative MGMT activity (%),40.8%
same,MGMT activity (a.u.) O^6BG,1.27 a.u.
same,MGMT activity (% of WT) O^6BG,88.6 % of WT
same,Ratio percent reporter expression (O^6BG/DMSO),2.45
same,O^6BG resistance relative to WT (%),54.5%
S159I: MGMT polypeptide with mutation S159I (protein) MDKDCEMKRTTLDSPLGKLELSGCEQGLHEIKLLGKGTSAADAVEVPAPAAVLGGPEPLMQCTAWLNAYFHQPEAIEEFPVPALHHPVFQQESFTRQVLWKLLKVVKFGEVISYQQLAALAGNPKAARAVGGAMRGNPVPILIPCHRVVCSSGAVGNYIGGLAVKEWLLAHEGHRLGKPGLGGSSGLAGAWLKGAGATSGSPPAGRN,"Reporter expression (%) mean, O^6BG",40.3%
same,"Reporter expression (%) mean, DMSO",18.0%
same,MGMT activity (a.u.) DMSO,5.56 a.u.
same,MGMT activity (% of WT) DMSO,102.8 % of WT
same,Relative MGMT activity (%),44.6%
same,MGMT activity (a.u.) O^6BG,2.48 a.u.
same,MGMT activity (% of WT) O^6BG,173.6 % of WT
same,Ratio percent reporter expression (O^6BG/DMSO),2.24
same,O^6BG resistance relative to WT (%),68.9%
S159W: MGMT polypeptide with mutation S159W (protein) MDKDCEMKRTTLDSPLGKLELSGCEQGLHEIKLLGKGTSAADAVEVPAPAAVLGGPEPLMQCTAWLNAYFHQPEAIEEFPVPALHHPVFQQESFTRQVLWKLLKVVKFGEVISYQQLAALAGNPKAARAVGGAMRGNPVPILIPCHRVVCSSGAVGNYWGGLAVKEWLLAHEGHRLGKPGLGGSSGLAGAWLKGAGATSGSPPAGRN,"Reporter expression (%) mean, O^6BG",108.0%
same,"Reporter expression (%) mean, DMSO",31.3%
same,MGMT activity (a.u.) DMSO,3.19 a.u.
same,MGMT activity (% of WT) DMSO,59.0 % of WT
same,Relative MGMT activity (%),29.0%
same,MGMT activity (a.u.) O^6BG,0.93 a.u.
same,MGMT activity (% of WT) O^6BG,64.8 % of WT
same,Ratio percent reporter expression (O^6BG/DMSO),3.45
same,O^6BG resistance relative to WT (%),9.8%
Y158F: MGMT polypeptide with mutation Y158F (protein) MDKDCEMKRTTLDSPLGKLELSGCEQGLHEIKLLGKGTSAADAVEVPAPAAVLGGPEPLMQCTAWLNAYFHQPEAIEEFPVPALHHPVFQQESFTRQVLWKLLKVVKFGEVISYQQLAALAGNPKAARAVGGAMRGNPVPILIPCHRVVCSSGAVGNFSGGLAVKEWLLAHEGHRLGKPGLGGSSGLAGAWLKGAGATSGSPPAGRN,"Reporter expression (%) mean, O^6BG",61.3%
same,"Reporter expression (%) mean, DMSO",12.3%
same,MGMT activity (a.u.) DMSO,8.11 a.u.
same,MGMT activity (% of WT) DMSO,150.0 % of WT
same,Relative MGMT activity (%),20.1%
same,MGMT activity (a.u.) O^6BG,1.63 a.u.
same,MGMT activity (% of WT) O^6BG,114.1 % of WT
same,Ratio percent reporter expression (O^6BG/DMSO),4.97
same,O^6BG resistance relative to WT (%),−23.9%
Y158H: MGMT polypeptide with mutation Y158H (protein) MDKDCEMKRTTLDSPLGKLELSGCEQGLHEIKLLGKGTSAADAVEVPAPAAVLGGPEPLMQCTAWLNAYFHQPEAIEEFPVPALHHPVFQQESFTRQVLWKLLKVVKFGEVISYQQLAALAGNPKAARAVGGAMRGNPVPILIPCHRVVCSSGAVGNHSGGLAVKEWLLAHEGHRLGKPGLGGSSGLAGAWLKGAGATSGSPPAGRN,"Reporter expression (%) mean, O^6BG",30.3%
same,"Reporter expression (%) mean, DMSO",23.3%
same,MGMT activity (a.u.) DMSO,4.29 a.u.
same,MGMT activity (% of WT) DMSO,79.3 % of WT
same,Relative MGMT activity (%),76.9%
same,MGMT activity (a.u.) O^6BG,3.30 a.u.
same,MGMT activity (% of WT) O^6BG,230.8 % of WT
same,Ratio percent reporter expression (O^6BG/DMSO),1.30
same,O^6BG resistance relative to WT (%),191.1%
Y158M: MGMT polypeptide with mutation Y158M (protein) MDKDCEMKRTTLDSPLGKLELSGCEQGLHEIKLLGKGTSAADAVEVPAPAAVLGGPEPLMQCTAWLNAYFHQPEAIEEFPVPALHHPVFQQESFTRQVLWKLLKVVKFGEVISYQQLAALAGNPKAARAVGGAMRGNPVPILIPCHRVVCSSGAVGNMSGGLAVKEWLLAHEGHRLGKPGLGGSSGLAGAWLKGAGATSGSPPAGRN,"Reporter expression (%) mean, O^6BG",60.0%
same,"Reporter expression (%) mean, DMSO",47.7%
same,MGMT activity (a.u.) DMSO,2.10 a.u.
same,MGMT activity (% of WT) DMSO,38.8 % of WT
same,Relative MGMT activity (%),79.4%
same,MGMT activity (a.u.) O^6BG,1.67 a.u.
same,MGMT activity (% of WT) O^6BG,116.7 % of WT
same,Ratio percent reporter expression (O^6BG/DMSO),1.26
same,O^6BG resistance relative to WT (%),200.6%
G156V: MGMT polypeptide with mutation G156V (protein) MDKDCEMKRTTLDSPLGKLELSGCEQGLHEIKLLGKGTSAADAVEVPAPAAVLGGPEPLMQCTAWLNAYFHQPEAIEEFPVPALHHPVFQQESFTRQVLWKLLKVVKFGEVISYQQLAALAGNPKAARAVGGAMRGNPVPILIPCHRVVCSSGAVVNYSGGLAVKEWLLAHEGHRLGKPGLGGSSGLAGAWLKGAGATSGSPPAGRN,"Reporter expression (%) mean, O^6BG",55.0%
same,"Reporter expression (%) mean, DMSO",36.8%
same,MGMT activity (a.u.) DMSO,2.72 a.u.
same,MGMT activity (% of WT) DMSO,50.3 % of WT
same,Relative MGMT activity (%),66.8%
same,MGMT activity (a.u.) O^6BG,1.82 a.u.
same,MGMT activity (% of WT) O^6BG,127.3 % of WT
same,Ratio percent reporter expression (O^6BG/DMSO),1.50
same,O^6BG resistance relative to WT (%),152.8%
S159F: MGMT polypeptide with mutation S159F (protein) MDKDCEMKRTTLDSPLGKLELSGCEQGLHEIKLLGKGTSAADAVEVPAPAAVLGGPEPLMQCTAWLNAYFHQPEAIEEFPVPALHHPVFQQESFTRQVLWKLLKVVKFGEVISYQQLAALAGNPKAARAVGGAMRGNPVPILIPCHRVVCSSGAVGNYFGGLAVKEWLLAHEGHRLGKPGLGGSSGLAGAWLKGAGATSGSPPAGRN,"Reporter expression (%) mean, O^6BG",102.7%
same,"Reporter expression (%) mean, DMSO",23.0%
same,MGMT activity (a.u.) DMSO,4.35 a.u.
same,MGMT activity (% of WT) DMSO,80.4 % of WT
same,Relative MGMT activity (%),22.4%
same,MGMT activity (a.u.) O^6BG,0.97 a.u.
same,MGMT activity (% of WT) O^6BG,68.2 % of WT
same,Ratio percent reporter expression (O^6BG/DMSO),4.46
same,O^6BG resistance relative to WT (%),−15.2%
Y158W: MGMT polypeptide with mutation Y158W (protein) MDKDCEMKRTTLDSPLGKLELSGCEQGLHEIKLLGKGTSAADAVEVPAPAAVLGGPEPLMQCTAWLNAYFHQPEAIEEFPVPALHHPVFQQESFTRQVLWKLLKVVKFGEVISYQQLAALAGNPKAARAVGGAMRGNPVPILIPCHRVVCSSGAVGNWSGGLAVKEWLLAHEGHRLGKPGLGGSSGLAGAWLKGAGATSGSPPAGRN,"Reporter expression (%) mean, O^6BG",86.7%
same,"Reporter expression (%) mean, DMSO",26.0%
same,MGMT activity (a.u.) DMSO,3.85 a.u.
same,MGMT activity (% of WT) DMSO,71.2 % of WT
same,Relative MGMT activity (%),30.0%
same,MGMT activity (a.u.) O^6BG,1.15 a.u.
same,MGMT activity (% of WT) O^6BG,80.8 % of WT
same,Ratio percent reporter expression (O^6BG/DMSO),3.33
same,O^6BG resistance relative to WT (%),13.5%
G156P: MGMT polypeptide with mutation G156P (protein) MDKDCEMKRTTLDSPLGKLELSGCEQGLHEIKLLGKGTSAADAVEVPAPAAVLGGPEPLMQCTAWLNAYFHQPEAIEEFPVPALHHPVFQQESFTRQVLWKLLKVVKFGEVISYQQLAALAGNPKAARAVGGAMRGNPVPILIPCHRVVCSSGAVPNYSGGLAVKEWLLAHEGHRLGKPGLGGSSGLAGAWLKGAGATSGSPPAGRN,"Reporter expression (%) mean, O^6BG",47.3%
same,"Reporter expression (%) mean, DMSO",41.0%
same,MGMT activity (a.u.) DMSO,2.44 a.u.
same,MGMT activity (% of WT) DMSO,45.1 % of WT
same,Relative MGMT activity (%),86.6%
same,MGMT activity (a.u.) O^6BG,2.11 a.u.
same,MGMT activity (% of WT) O^6BG,147.9 % of WT
same,Ratio percent reporter expression (O^6BG/DMSO),1.15
same,O^6BG resistance relative to WT (%),227.8%
G156I: MGMT polypeptide with mutation G156I (protein) MDKDCEMKRTTLDSPLGKLELSGCEQGLHEIKLLGKGTSAADAVEVPAPAAVLGGPEPLMQCTAWLNAYFHQPEAIEEFPVPALHHPVFQQESFTRQVLWKLLKVVKFGEVISYQQLAALAGNPKAARAVGGAMRGNPVPILIPCHRVVCSSGAVINYSGGLAVKEWLLAHEGHRLGKPGLGGSSGLAGAWLKGAGATSGSPPAGRN,"Reporter expression (%) mean, O^6BG",54.0%
same,"Reporter expression (%) mean, DMSO",42.0%
same,MGMT activity (a.u.) DMSO,2.38 a.u.
same,MGMT activity (% of WT) DMSO,44.0 % of WT
same,Relative MGMT activity (%),77.8%
same,MGMT activity (a.u.) O^6BG,1.85 a.u.
same,MGMT activity (% of WT) O^6BG,129.6 % of WT
same,Ratio percent reporter expression (O^6BG/DMSO),1.29
same,O^6BG resistance relative to WT (%),194.3%

# — patent publication US20250135039A1, “INHIBITOR-RESISTANT MGMT MODIFICATIONS AND MODIFICATION OF MGMT-ENCODING NUCLEIC ACIDS” (Ensoma, Inc., priority 2022, published 2025)
